These results are taken from publication PMC6224402, “PIM2-mediated phosphorylation of hexokinase 2 is critical for tumor growth and paclitaxel resistance in breast cancer” (Oncogene, 2018).

This assay has as its target T1, GST-tagged HK2 (human, UniProt P52789 1-917).
T1 construct: Hexokinase 2 (HK2), human cDNA cloned into pGEX-4T-1; also called GST-HK2; source: E. coli BL21 (DE3), purified
T1 sequence (looked up): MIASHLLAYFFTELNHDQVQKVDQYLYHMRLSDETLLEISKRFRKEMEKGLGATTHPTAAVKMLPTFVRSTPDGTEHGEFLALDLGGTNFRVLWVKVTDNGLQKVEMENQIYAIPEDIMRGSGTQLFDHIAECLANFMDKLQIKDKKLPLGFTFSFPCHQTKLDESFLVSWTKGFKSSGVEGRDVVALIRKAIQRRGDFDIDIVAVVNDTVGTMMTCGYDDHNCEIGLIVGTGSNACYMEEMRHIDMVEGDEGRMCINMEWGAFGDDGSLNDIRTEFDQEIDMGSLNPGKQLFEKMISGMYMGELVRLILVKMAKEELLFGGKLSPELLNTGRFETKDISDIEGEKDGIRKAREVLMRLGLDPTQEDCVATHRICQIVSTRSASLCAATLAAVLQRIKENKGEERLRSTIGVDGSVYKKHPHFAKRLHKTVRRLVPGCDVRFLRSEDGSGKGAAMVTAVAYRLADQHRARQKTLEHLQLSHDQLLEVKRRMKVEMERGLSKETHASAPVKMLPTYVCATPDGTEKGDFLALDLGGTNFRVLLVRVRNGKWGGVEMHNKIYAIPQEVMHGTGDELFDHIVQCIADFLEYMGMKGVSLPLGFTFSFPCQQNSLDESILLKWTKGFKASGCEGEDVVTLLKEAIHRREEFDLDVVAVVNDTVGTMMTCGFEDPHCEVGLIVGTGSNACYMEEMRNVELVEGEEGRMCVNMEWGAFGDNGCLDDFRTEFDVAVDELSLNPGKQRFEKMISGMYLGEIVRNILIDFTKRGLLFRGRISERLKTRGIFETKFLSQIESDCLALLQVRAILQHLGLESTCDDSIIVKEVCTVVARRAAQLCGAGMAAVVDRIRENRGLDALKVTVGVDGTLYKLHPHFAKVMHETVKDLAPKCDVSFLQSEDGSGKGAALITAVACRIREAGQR
The assay can be described thus: pull-down; purified GST-tagged HK2 or GST mixed with His-PIM2; GST-binding resin, more than 8 h, five washes with lysis buffer. The note with it: both partners purified.

B1: His-tagged PIM2 (enzyme)
chain: not shown
notes: Serine/threonine kinase PIM2, human cDNA cloned into pet28a; also called His-PIM2; source: E. coli BL21 (DE3), purified
Regarding B1, the binding result was “binds”.
